Data published in paper PMC2132940.

What was measured:
Assay in all cases: co-IP
CD7BB1 (human | canine) [1] = molecular target: CD7BB1 (human | canine) (UniProt P09564)
CD7BB1 (human | canine) [2] = molecular target: CD7BB1 (human | canine) (UniProt P09564); remark: listed apart in the source
GP2CAD1 (rat | canine) = molecular target: GP2CAD1 (rat | canine)

UniProt P09564, sequence (P09564 whole entry): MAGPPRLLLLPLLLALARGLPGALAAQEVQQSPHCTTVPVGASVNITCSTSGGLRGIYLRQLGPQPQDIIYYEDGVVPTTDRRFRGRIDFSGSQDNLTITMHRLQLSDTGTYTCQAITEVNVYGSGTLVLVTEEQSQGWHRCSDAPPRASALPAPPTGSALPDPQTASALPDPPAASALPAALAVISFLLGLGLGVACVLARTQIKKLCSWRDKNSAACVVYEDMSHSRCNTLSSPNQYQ

stoichiometry N (α-catenin per 5 CD7BB1) (CD7BB1 (human | canine) [1])	stoichiometry N (β-catenin per 5 CD7BB1) (CD7BB1 (human | canine) [2])	stoichiometry N (β-catenin per GP2CAD1) (GP2CAD1 (rat | canine))	Molecule
0.8	–	–	α-catenin (natural protein)
–	1	1	β-catenin (natural protein) MATQADLMELDMAMEPDRKAAVSHWQQQSYLDSGIHSGATTTAPSLSGKGNPEEEDVDTTQVLYEWEQGFSQSFTQEQVADIDGQYAMTRAQRVRAAMFPETLDEGMQIPSTQFDAAHPTNVQRLAEPSQMLKHAVVNLINYQDDAELATRAIPELTKLLNDEDQVVVNKAAVMVHQLSKKEASRHAIMRSPQMVSAIVRTMQNTNDVETARCTAGTLHNLSHHREGLLAIFKSGGIPALVKMLGSPVDSVLFYAITTLHNLLLHQEGAKMAVRLAGGLQKMVALLNKTNVKFLAITTDCLQILAYGNQESKLIILASGGPQALVNIMRTYTYEKLLWTTSRVLKVLSVCSSNKPAIVEAGGMQALGLHLTDPSQRLVQNCLWTLRNLSDAATKQEGMEGLLGTLVQLLGSDDINVVTCAAGILSNLTCNNYKNKMMVCQVGGIEALVRTVLRAGDREDITEPAICALRHLTSRHQEAEMAQNAVRLHYGLPVVVKLLHPPSHWPLIKATVGLIRNLALCPANHAPLREQGAIPRLVQLLVRAHQDTQRRTSMGGTQQQFVEGVRMEEIVEGCTGALHILARDVHNRIVIRGLNTIPLFVQLLYSPIENIQRVAAGVLCELAQDKEAAEAIEAEGATAPLTELLHSRNEGVATYAAAVLFRMSEDKPQDYKKRLSVELTSSLFRTEPMAWNETADLGLDIGAQGEPLGYRQDDPSYRSFHSGGYGQDALGMDPMMEHEMGGHHPGADYPVDGLPDLGHAQDLMDGLPPGDSNQLAWFDTDL
